Experiments:
[1] = target: HLA-A*02:01; experiment: IEDB peptide-MHC binding, cellular MHC/competitive/fluorescence; ≥ and ≤ were set here for values at or beyond the usual limits of such assays
[2] = target: HLA-A*02:06; experiment: as above
[3] = target: HLA-A*02:02; experiment: IEDB peptide-MHC binding, purified MHC/competitive/radioactivity; ≥ and ≤ were set here for values at or beyond the usual limits of such assays
[4] = target: HLA-A*02:03; experiment: as above
[5] = target: HLA-A*68:02; experiment: as above
[6] = target: HLA-A*02:01; experiment: as above
[7] = source organism: Vaccinia virus WR
[8] = source organism: Mammarenavirus brazilense
[9] = source organism: Influenza A virus
[10] = source organism: Mammarenavirus whitewaterense
[11] = source organism: Mammarenavirus lassaense
[12] = source organism: Mammarenavirus choriomeningitidis

With DTIAHINTL the IC50 [1, 7] was 10.1 µM, the IC50 [2, 7] was 11.1 µM and the IC50 [3, 7] was 0.747 µM. The IC50 [4, 7] was 0.233 µM and the IC50 [5, 7] was 1.24 µM.
AAKTPVIVV was tested, and the IC50 [1, 7] was 9.43 µM, the IC50 [2, 7] was 25.3 µM and the IC50 [3, 7] was 1.36 µM. The IC50 [4, 7] was 1.63 µM and the IC50 [5, 7] was 4.28 µM.
For DTLVKSGLT, the IC50 [1, 7] was ≥ 70 µM, the IC50 [2, 7] was 52.9 µM and the IC50 [3, 7] was 1.95 µM. The IC50 [4, 7] was 2.88 µM and the IC50 [5, 7] was 1.95 µM.
Sequence LRYFIMAYV has an IC50 [1, 8] of 12.7 µM, an IC50 [2, 8] of 20.1 µM and an IC50 [3, 8] of 0.213 µM. It also gave an IC50 [4, 8] of 0.396 µM and an IC50 [5, 8] of 0.018 µM.
IVNNFITKEI was tested, and the IC50 [1, 7] was 13.7 µM, the IC50 [2, 7] was 14.2 µM and the IC50 [3, 7] was 1.47 µM. The IC50 [4, 7] was 0.192 µM and the IC50 [5, 7] was 1.32 µM.
In the case of ETLFGSYIT, the IC50 [1, 7] is reported as 15.6 µM, the IC50 [2, 7] is reported as 15.4 µM and the IC50 [3, 7] is reported as 2.49 µM. It also gave an IC50 [4, 7] of 2.44 µM and an IC50 [5, 7] of 0.465 µM.
For TMKAIEKDRL, the IC50 [1, 7] was 17.5 µM, the IC50 [2, 7] was ≥ 70 µM and the IC50 [3, 7] was 0.171 µM. The IC50 [4, 7] was 1.06 µM and the IC50 [5, 7] was 1.57 µM.
YTKHSMLTNA was tested, and the IC50 [1, 7] was 38.3 µM, the IC50 [2, 7] was 7.34 µM and the IC50 [3, 7] was 3.9 µM. The IC50 [4, 7] was 0.141 µM and the IC50 [5, 7] was 1.42 µM.
In the case of IAVANCVRNL, the IC50 [1, 7] is reported as 13.6 µM, the IC50 [2, 7] is reported as 9.11 µM and the IC50 [3, 7] is reported as 0.057 µM. For the same sequence, the IC50 [4, 7] was 0.467 µM and the IC50 [5, 7] was 0.465 µM.
With IVSSYVCSGL the IC50 [1, 9] was 6.2 µM, the IC50 [2, 9] was 12.7 µM and the IC50 [3, 9] was 0.161 µM. It also gave an IC50 [4, 9] of 0.795 µM and an IC50 [5, 9] of 0.767 µM.
EMKYALINL was tested, and the IC50 [1, 7] was 41.2 µM, the IC50 [2, 7] was ≥ 70 µM and the IC50 [3, 7] was 3.06 µM. It also gave an IC50 [4, 7] of 0.063 µM and an IC50 [5, 7] of 2.47 µM.
Work on ITHTNITTLL yielded an IC50 [1, 7] of 11.9 µM, an IC50 [2, 7] of 14.8 µM and an IC50 [3, 7] of 1.69 µM. For the same sequence, the IC50 [4, 7] was 0.101 µM and the IC50 [5, 7] was 0.311 µM.
Sequence NASKTINAL has an IC50 [1, 7] of 26.8 µM, an IC50 [2, 7] of 6.11 µM and an IC50 [3, 7] of 0.117 µM. The IC50 [4, 7] was 0.708 µM and the IC50 [5, 7] was 0.052 µM.
In the case of KTVAGSFAS, the IC50 [1, 10] is reported as 5.56 µM, the IC50 [2, 10] is reported as 9.14 µM and the IC50 [3, 10] is reported as 1.6 µM. The IC50 [4, 10] was 3.82 µM and the IC50 [5, 10] was 2.99 µM.
In the case of YCSNIKLQVV, the IC50 [1, 11] is reported as 8.6 µM, the IC50 [2, 11] is reported as 7.13 µM and the IC50 [3, 11] is reported as 1.24 µM. For the same sequence, the IC50 [4, 11] was 0.802 µM and the IC50 [5, 11] was 1.17 µM.
GTSGVESAV gave an IC50 [1, 9] of 10.8 µM, an IC50 [2, 9] of 11.4 µM and an IC50 [3, 9] of 1.1 µM. For the same sequence, the IC50 [4, 9] was 3.01 µM and the IC50 [5, 9] was 0.683 µM.
In the case of FTSYKRFVT, the IC50 [1, 7] is reported as ≥ 70 µM, the IC50 [2, 7] is reported as 12.4 µM and the IC50 [3, 7] is reported as 2.33 µM. For the same sequence, the IC50 [4, 7] was 3.38 µM and the IC50 [5, 7] was 0.452 µM.
In the case of IVSLCPTKKL, the IC50 [1, 7] is reported as 9.97 µM, the IC50 [2, 7] is reported as 28.5 µM and the IC50 [3, 7] is reported as 0.0095 µM. It also gave an IC50 [4, 7] of 0.029 µM and an IC50 [5, 7] of 0.52 µM.
For TLFIDRGSI, the IC50 [1, 7] was 17.7 µM, the IC50 [2, 7] was ≥ 70 µM and the IC50 [3, 7] was 2.1 µM. It also gave an IC50 [4, 7] of 0.802 µM and an IC50 [5, 7] of 0.181 µM.
With LNQAVNNLV the IC50 [1, 11] was 7.96 µM, the IC50 [2, 11] was 13.6 µM and the IC50 [3, 11] was 0.511 µM. For the same sequence, the IC50 [4, 11] was 3.35 µM and the IC50 [5, 11] was 4.88 µM.
Sequence CLKNEGVSGL has an IC50 [1, 7] of 6.3 µM, an IC50 [2, 7] of 14.1 µM and an IC50 [3, 7] of 0.127 µM. For the same sequence, the IC50 [4, 7] was 0.025 µM and the IC50 [5, 7] was 2.08 µM.
Work on EVTPEYIKDL yielded an IC50 [1, 7] of 6.5 µM, an IC50 [2, 7] of 7.68 µM and an IC50 [3, 7] of 1.52 µM. The IC50 [4, 7] was 2.27 µM and the IC50 [5, 7] was 1.23 µM.
VISTIANSNI gave an IC50 [1, 7] of 7.8 µM, an IC50 [2, 7] of 5.16 µM and an IC50 [3, 7] of 0.282 µM. The IC50 [4, 7] was 0.845 µM and the IC50 [5, 7] was 0.788 µM.
With LAEHISDSI the IC50 [1, 7] was 6.05 µM, the IC50 [2, 7] was 19.3 µM and the IC50 [3, 7] was 0.045 µM. It also gave an IC50 [4, 7] of 0.731 µM and an IC50 [5, 7] of 0.428 µM.
LNQTVYSLV gave an IC50 [1, 12] of 9.25 µM, an IC50 [2, 12] of 5.1 µM and an IC50 [3, 12] of 3.33 µM. The IC50 [4, 12] was 1.51 µM and the IC50 [5, 12] was 0.262 µM.
Work on IADIRDKYM yielded an IC50 [1, 7] of 11.3 µM, an IC50 [2, 7] of 57.8 µM and an IC50 [3, 7] of 0.063 µM. For the same sequence, the IC50 [4, 7] was 0.23 µM and the IC50 [5, 7] was 3.11 µM.
For CLINDPWVL, the IC50 [2, 9] was 6.16 µM, the IC50 [6, 9] was 0.127 µM and the IC50 [3, 9] was 0.31 µM. It also gave an IC50 [4, 9] of 0.255 µM and an IC50 [5, 9] of 4.55 µM.
Work on EIMDKEQLL yielded an IC50 [2, 7] of 26.4 µM, an IC50 [6, 7] of 3.96 µM and an IC50 [3, 7] of 0.183 µM. For the same sequence, the IC50 [4, 7] was 0.427 µM and the IC50 [5, 7] was 0.291 µM.
Sequence DLFMSHVKSV has an IC50 [2, 7] of 19.8 µM, an IC50 [6, 7] of 2.49 µM and an IC50 [3, 7] of 3.38 µM. The IC50 [4, 7] was 0.042 µM and the IC50 [5, 7] was 1.94 µM.
